Reference: publication PMC2192344
Read-outs that look alike come from different tables or passages of the source.

Legend:
[1] = molecular target: T1, His6-Elf-1 (human, UniProt P32519 1-619); test: EMSA
[2] = molecular target: T1, His6-Elf-1; test: EMSA; remark: listed apart in the source

T1 sequence (P32519 whole entry): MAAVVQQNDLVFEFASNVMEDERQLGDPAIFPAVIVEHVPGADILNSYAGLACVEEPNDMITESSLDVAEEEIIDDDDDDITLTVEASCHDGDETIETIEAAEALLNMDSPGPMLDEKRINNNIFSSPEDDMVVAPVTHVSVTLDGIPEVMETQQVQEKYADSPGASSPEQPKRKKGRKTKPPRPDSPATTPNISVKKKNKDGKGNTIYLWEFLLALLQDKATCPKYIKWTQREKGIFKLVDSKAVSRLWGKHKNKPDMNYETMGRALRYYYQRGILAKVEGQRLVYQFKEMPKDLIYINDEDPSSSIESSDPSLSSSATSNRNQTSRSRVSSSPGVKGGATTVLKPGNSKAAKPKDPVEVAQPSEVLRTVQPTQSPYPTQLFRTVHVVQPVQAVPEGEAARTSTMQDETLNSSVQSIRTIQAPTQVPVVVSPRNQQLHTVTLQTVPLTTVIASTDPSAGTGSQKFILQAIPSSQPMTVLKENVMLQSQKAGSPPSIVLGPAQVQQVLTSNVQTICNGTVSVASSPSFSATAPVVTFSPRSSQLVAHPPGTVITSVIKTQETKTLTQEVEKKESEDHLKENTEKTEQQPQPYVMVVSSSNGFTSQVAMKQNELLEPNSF

Binder | binding result [1] | binding result [2]
m3 -97/-84 (dsDNA) DNA 1: AAATATCGGAAGTG DNA 2: CACTTCCGATATTT | no binding | 
m2 -97/-84 (dsDNA) DNA 1: AAATACCGGAAGTG DNA 2: CACTTCCGGTATTT |  | binds
